Measurements taken from the supplement of paper PMC7125110.
± gives the standard error. For some assays here: This sample holds only a part of the variants without activity.

B1: glmS ribozyme (parent)
chain: AUAAAAGCGCCAGAACUACAGAAAUGUAGUUGACGAGGAGGAGGUUUAUCGAAUUUUCGGCGGAUGCCUCCAAA

Tests used:
Details in all cases: with glucosamine-6-phosphate
[1] = variants of: B1; assay: kcat; higher = faster cleavage; RNA array
Outline: (§1)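 Tiles bearing barcoded ribozyme variants, transcribed in situ by E. coli RNA polymerase on sequenced MiSeq chips, were imaged over ~14 h at 37 °C using a hybridised Cy3 probe. Glucosamine-6-phosphate was supplied at 40 μM to 10 mM in HEPES/KCl/Mg(OAc)2 buffer. kobs came from one- or two-exponential decay fits to normalised per-tile medians, and weighted Michaelis–Menten fits then provided kcat and KM.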

[2] = variants of: B1; assay: self-cleavage kobs at 640 uM GlcN6P; higher = faster cleavage; RNA array
Outline: as §1

[3] = variants of: B1; assay: self-cleavage kobs at 10000 uM GlcN6P; higher = faster cleavage; RNA array
Outline: as §1

[4] = variants of: B1; assay: self-cleavage kobs at 2500 uM GlcN6P; higher = faster cleavage; RNA array
Outline: as §1

[5] = variants of: B1; assay: self-cleavage kobs at 160 uM GlcN6P; higher = faster cleavage; RNA array
Outline: as §1

[6] = variants of: B1; assay: self-cleavage kobs at 40 uM GlcN6P; higher = faster cleavage; RNA array
Outline: as §1

[7] = variants of: B1; assay: KM; higher = weaker cofactor use; RNA array
Outline: as §1

Variant | kcat [1] [s⁻¹] | self-cleavage kobs at 640 uM GlcN6P [2] [s⁻¹] | self-cleavage kobs at 10000 uM GlcN6P [3] [s⁻¹] | self-cleavage kobs at 2500 uM GlcN6P [4] [s⁻¹] | self-cleavage kobs at 160 uM GlcN6P [5] [s⁻¹] | self-cleavage kobs at 40 uM GlcN6P [6] [s⁻¹] | KM [7] [µM]
A6U U49A C71G | 3.45e-05 ± 8.5e-06 | – | – | – | – | – | –
C61G U69G | 1.73e-05 ± 4.8e-06 | – | – | – | – | – | –
C16A G32A | 0.0012 ± 0.00043 | 0.000229 ± 0.00011 | 0.000787 ± 0.00012 | – | – | – | –
C10A C70U | 2.11e-05 ± 9.5e-06 | – | – | 2.56e-05 ± 1.3e-05 | – | – | –
C8G A15U U55C G60A | < 1e-05 | – | < 1e-05 | – | – | – | –
G9U U47C | < 1e-05 | < 1e-05 | – | < 1e-05 | < 1e-05 | – | –
A53U G59A | 4.83e-05 ± 6.3e-06 | – | 4.2e-05 ± 8.2e-06 | 3.5e-05 ± 1.2e-05 | – | < 1e-05 | –
A48C C68U | 8.75e-05 ± 8.5e-06 | – | 7.54e-05 ± 1.1e-05 | 6.35e-05 ± 1.3e-05 | – | < 1e-05 | 1310 ± 540
A53U G66C | 0.000389 ± 9.5e-05 | 0.000103 ± 2.5e-05 | 0.000387 ± 0.00011 | 0.000187 ± 4.6e-05 | – | – | 1980 ± 890
A12U G32A | 0.000902 ± 5.6e-05 | 0.000203 ± 2.1e-05 | 0.000735 ± 0.00013 | 0.000498 ± 5.1e-05 | 6.52e-05 ± 9.5e-06 | – | 2110 ± 200
C10A C61G | < 1e-05 | – | – | – | – | – | –
U47G C50A C67U | 4.13e-05 ± 1.8e-05 | 6.02e-05 ± 2.6e-05 | – | 7.44e-05 ± 3.1e-05 | – | – | –
G29C C58U | 5.79e-05 ± 8.3e-06 | – | 4.86e-05 ± 8e-06 | 2.68e-05 ± 9.9e-06 | – | < 1e-05 | –
A14U U57G | 2.1e-05 ± 4e-06 | – | – | – | – | < 1e-05 | –
A52G C71A | 0.000593 ± 8.1e-05 | 9.96e-05 ± 1.3e-05 | 0.000466 ± 5.9e-05 | 0.000247 ± 3.1e-05 | 3.52e-05 ± 1.4e-05 | – | 3190 ± 730
A12G C68U | 0.000271 ± 1.9e-05 | 5.55e-05 ± 6.8e-06 | 0.000219 ± 1.5e-05 | 0.000137 ± 1.5e-05 | 3.11e-05 ± 1.2e-05 | – | 2400 ± 390
C16A C67A | 0.000254 ± 2.7e-05 | 0.000123 ± 1.2e-05 | 0.000248 ± 2.9e-05 | 0.00021 ± 3.3e-05 | 6.97e-05 ± 1.3e-05 | – | 598 ± 150
A14C C50U | 1.4e-05 ± 6.4e-06 | – | – | – | – | – | –
U30C U65A | 2.91e-05 ± 1.2e-05 | – | – | 3.76e-05 ± 1.2e-05 | – | – | –
A42G U54G | 0.0467 ± 0.012 | 0.0108 ± 0.0031 | 0.0409 ± 0.011 | 0.0229 ± 0.0093 | 0.00287 ± 0.00056 | 0.00111 ± 0.00022 | 2110 ± 650
